Data taken from patent publication US20250041339A1 (University of Pennsylvania, published 2025).

T1: tCD45RO_WT (truncated, N-terminally myc-tagged wild-type CD45RO construct) (human, UniProt P08575 1-604)
T1 construct: Expressed from lentivirus on CD45-negative NALM6 cells; also called WT CD45; CD45 WT
T1 sequence: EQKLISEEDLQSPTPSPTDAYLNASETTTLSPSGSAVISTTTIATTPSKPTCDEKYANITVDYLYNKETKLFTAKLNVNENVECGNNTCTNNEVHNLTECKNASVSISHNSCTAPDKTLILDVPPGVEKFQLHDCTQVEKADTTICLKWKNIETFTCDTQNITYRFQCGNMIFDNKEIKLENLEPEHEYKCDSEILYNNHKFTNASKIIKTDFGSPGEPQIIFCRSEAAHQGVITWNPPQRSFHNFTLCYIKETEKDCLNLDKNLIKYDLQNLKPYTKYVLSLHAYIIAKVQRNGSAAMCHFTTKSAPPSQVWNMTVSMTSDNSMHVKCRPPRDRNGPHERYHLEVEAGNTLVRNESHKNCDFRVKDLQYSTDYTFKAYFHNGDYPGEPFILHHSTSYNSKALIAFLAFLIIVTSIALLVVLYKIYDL

T2: tCD45_RO_T8A (CD45RO with Thr8 changed to alanine) (human, UniProt P08575 1-604)
T2 construct: The entry already carries the substitution, the signal peptide and the myc tag
T2 sequence: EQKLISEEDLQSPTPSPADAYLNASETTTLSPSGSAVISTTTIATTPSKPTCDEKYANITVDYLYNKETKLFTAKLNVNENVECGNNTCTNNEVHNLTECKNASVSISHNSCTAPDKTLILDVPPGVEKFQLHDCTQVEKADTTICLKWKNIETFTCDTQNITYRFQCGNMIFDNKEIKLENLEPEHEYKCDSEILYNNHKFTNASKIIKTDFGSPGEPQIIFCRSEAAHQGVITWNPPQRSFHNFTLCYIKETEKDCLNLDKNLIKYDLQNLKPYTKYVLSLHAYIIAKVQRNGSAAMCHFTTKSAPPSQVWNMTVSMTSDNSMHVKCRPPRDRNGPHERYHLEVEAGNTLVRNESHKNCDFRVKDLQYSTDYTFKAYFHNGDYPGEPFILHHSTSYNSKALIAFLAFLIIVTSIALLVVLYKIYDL


Experiments:
[1] = target: T1, tCD45RO_WT (truncated, N-terminally …); assay: staining of cells expressing truncated CD45 constructs with his-tagged scFv/antibody clones
From the text: (§1) With the information obtained from the crystal structure (and given that FN domains are evolutionary conserved and stable structures), and without wishing to be bound by theory, it was hypothesized that the subdomains which are recognized by the CAR45-T cells can be narrowed down by sequentially truncating the extracellular domain. The constructs to generate the truncated CD45 constructs were de novo synthesized (FIG. 24A). To verify surface expression of the truncated CD45 constructs, all constructs were myc-tagged at the N-terminus to allow surface staining against the truncated CD45 expressing cell using anti-Myc antibodies followed by readout via flowcytometry. Cells expressing the truncated CD45 constructs were stained with recombinantly expressed, his-tagged scFv/antibody clones from which the CARs were made off. Positive staining for the his tag therefore only occurs when the scFv/antibody clones can bind truncated CD45.

[2] = target: T1, tCD45RO_WT (truncated, N-terminally …); assay: flow cytometry, his-tag staining of cells expressing myc-tagged truncated CD45 constructs
From the text: as §1

[3] = target: T2, tCD45_RO_T8A (CD45RO with Thr8 changed …); assay: antibody staining (figure cited in the text as FIG. 42, left)

binding result [1] | Binder | further results
binds | recombinantly expressed, his-tagged scFv/antibody clone Gap8.3 (scFv, V domains shown, Soluble his-tagged scFv/antibody clone used to stain cells expressing truncated CD45; also called Gap8.3 scFv) VH: EVQLQQSGPELVKTGASVKISCKASGYSFTGYFIHWVKQSHGKSLEWIGYISCYNGATSYNQKFKGKATFTVDTSSSTAYMQFNSVTSEDSAVYYCVRNYYGNLDAMDYWGQGTSVTVSS VL: DIVMTQSHKFMSTSVGDRVSITCKASQDVSTAVAWYQQKPGQSPKILIYSASYRYTGVPDRFTGSGSGTDFTFTISSVQAEDLAVYYCQQHYSTPRTFGGGTKLEIK | 
 | recombinantly expressed, his-tagged scFv from the BC8 clone (scFv, V domains shown, Soluble his-tagged scFv used to stain cells; also called BC8 scFv) VH: QVQLVESGGGLVQPGGSLKLSCAASGFDFSRYWMSWVRQAPGKGLEWIGEINPTSSTINFTPSLKDKVFISRDNAKNTLYLQMSKVRSEDTALYYCARGNYYRYGDAMDYWGQGTSVTVS VL: DIVLTQSPASLAVSLGQRATISCRASKSVSTSGYSYLHWYQQKPGQPPKLLIYLASNLESGVPARFSGSGSGTDFTLNIHPVEEEDAATYYCQHSRELPFTFGSGTKLEIK | binding result [2]: binds
binds | recombinantly expressed, his-tagged scFv/antibody clone 9.4 (scFv, V domains shown, Soluble his-tagged scFv/antibody clone used to stain cells expressing truncated CD45; also called 9.4 scFv) VH: QVQLQQLGAELARPGASVKMSCKASGYTFTSYSIQWVKQRPGQGLEWIGYINPSSGYIKYNQHFRDRATLTADRSSSTAYMQLSSLTSEDSAVYYCARGNSGSFDYWGQGTTLTVSS VL: DIVMTQAAPSVPVTPGESLSISCRSSKSLLHSSGITYLYWFLQRPGQSPQLLIYRMSNLASGVPDRFSGSGSGTAFTLRISRVEAEDVGVYYCMQHLEYPFTFGGGTKLEIK | 
 | antibody clone UCHL-1 (CD45RO-specific) (antibody, V domains shown, also called muUCHL) VH: QITLKESGPGILQPSQTLSLTCSFSGFSLTTYGIGVGWIRQPPGKGLEWLTHIWWNDNKYYNTALRSRLTISKDSSNNQVLLKIANVDTADTATYYCLYGYTYWGQGTLVTVSA VL: DVVMTQTPLSLPVSLGDQASISCRSSQSLLYSNGNTYLHWYLQKPGQSPKLLIYKLSNRFSGVPDRFSGSGSGTDFTLKISRVEAEDLGVYFCSQSTHVPWTFGGGTKLEIK | binding result [3]: no binding
binds | recombinantly expressed, his-tagged scFv/antibody clone 4B2 (scFv, V domains shown, Soluble his-tagged scFv/antibody clone used to stain cells expressing truncated CD45; also called 4B2 scFv) VH: GVQLQESGAELARPGASVKMSCKASGYTFTSYTMQWVKQRPGQGLEWIGYINPSSGYIKYNQKFKDKVTLTADKSSTTAYMQLSRLTSEDSAVYYCARRGSYFFDFWGQGTSVTVSS VL: DIVITQDELSNPVTSGESVSISCRSSKSLLYKDGKTYLNWFLQRPGQSPQLLIYLMSTRASGVSDRFSGSGSGTDFTLEISRVKAEDVGVYYCQQLVEYPFTFGGGTKLEVK | 
